{"source": "paper PMC5858577", "molecular_target": "VEGF (human recombinant VEGF165 in the cell experiments) (human, UniProt P15692-4 27-191)", "test": "fluorescence recovery by displacement from gold nanorod", "data": [{"binder": "CAATTGGGCCCGTCCGTATGGTGGGT (XNA, LNA monomers at both ends, DNA in the middle; exact positions only in Fig. 1b/Supplementary Table 1)", "note": "[gapmer aptamer probe]", "values": [{"measurement": "binding result", "result": "binds"}]}]}
